From US20250269047A1 (MABWELL SHANGHAI BIOSCIENCE, published 2025) come the findings set out here.

For orientation: Kd means a measure of binding affinity in units of concentration. One may read the koff as the first-order rate constant of dissociation. One may read the kon as the rate constant with which the complex forms.

In assay [1] the target is T1, recombinant human B7-H3-his extracellular domain protein (UniProtKB-Q5ZPR3, 1 aa-461 aa) (human, UniProt Q5ZPR3 29-461).
T1 construct: range 1-461; The printed range 1-461 starts at residue 1 and so includes the signal peptide; also called Human B7-H3 ECD; recombinant human B7-H3-his protein; not shown: C-terminal his tag
T1 sequence (looked up): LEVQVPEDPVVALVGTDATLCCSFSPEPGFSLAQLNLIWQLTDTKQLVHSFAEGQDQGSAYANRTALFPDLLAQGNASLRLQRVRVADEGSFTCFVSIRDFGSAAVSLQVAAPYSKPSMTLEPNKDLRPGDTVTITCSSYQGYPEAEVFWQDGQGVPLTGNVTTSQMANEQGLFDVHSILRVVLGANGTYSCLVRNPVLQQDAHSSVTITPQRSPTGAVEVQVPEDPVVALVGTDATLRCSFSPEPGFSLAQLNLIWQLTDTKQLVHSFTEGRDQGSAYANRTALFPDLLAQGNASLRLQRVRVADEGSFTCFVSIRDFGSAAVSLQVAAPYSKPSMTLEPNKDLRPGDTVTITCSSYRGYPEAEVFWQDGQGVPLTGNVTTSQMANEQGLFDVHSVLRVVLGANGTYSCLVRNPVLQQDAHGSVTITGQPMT
In words: BLI (Octet QKe), antibody on AHC biosensor, B7-H3-his 60 nM in solution. How it is done:
Affinities of the antibodies were determined by an assay including capturing Fc fragments of the antibodies with anti-human IgG Fc capture (AHC) biosensors using Octet QKe system instrument from Fortebio. For the assay, each of the chimeric antibodies ch9B11, ch10B4, ch17A3 and the control antibody Enoblituzumab was diluted to 4 μg/ml in PBS, and was allowed to flow through the surface of an AHC biosensor (Cat.: 18-0015, PALL) for 120 s. Recombinant human B7-H3 extracellular domain protein (Accession No.: UniProtKB-Q5ZPR3, 1 aa-461 aa, C-his tag) (60 nM) was used as a mobile phase. The association time was 300 s and the dissociation time was 300 s. When the assay was finished, data from which the response values of blank control had been deducted were fitted to a 1:1 Langmuir binding model using software, and then kinetic constants for antigen-antibody binding were calculated.
(Biolayer interferometry detects binding as a change in optical thickness at a sensor tip.)

In assay [2] the target is T1, recombinant human B7-H3-his …. The assay is described as above. How it is done: According to the mutation designs, site-directed mutagenesis was performed in the plasmids expressing the humanized light chains and heavy chains respectively using StarMut gene Site-directed Mutagenesis Kit (Cat.: T111-01, GenStar). The mutated plasmids were transformed into E. coli cells for expansion, and plasmids expressing the humanized and mutated light and heavy chains based on the antibodies 9B11, 10B4, and 17A3 were obtained. […] 5-6 days after cell transfection, culture supernatants were purified through ProA affinity chromatography column to obtain different humanized antibodies. Affinities of the antibodies were determined by an assay including capturing Fc fragments of the antibodies with anti-human IgG Fc capture (AHC) biosensors using Octet QKe system instrument from Fortebio. For the assay, each of the humanized antibodies and the chimeric antibodies based on the antibodies 9B11, 10B4, and 17A3 was diluted to 4 μg/ml in PBS, and was allowed to flow through the surface of an AHC biosensor (Cat.: 18-0015, PALL) for 300 s. Recombinant human B7-H3-his protein (Accession No.: UniProtKB-Q5ZPR3, 1 aa-461 aa) was used as a mobile phase, and its concentration was 60 nM. The association time was 100 s and the dissociation time was 300 s. When the assay was finished, data from which the response values of blank control had been deducted were fitted to a 1:1 Langmuir binding model using software, and then kinetic constants for antigen-antibody binding were calculated. The light and heavy chain combinations and the affinity constant KD values of the humanized and the mutant antibodies based on the antibodies 9B11, 10B4, and 17A3 are shown in Tables 6-8 respectively.
This is another data set of the same source.

Like-named read-outs stand apart in the source and are kept apart here.

B1: ch17A3 (antibody, human IgG1, V domains shown)
VH: QVQLQQSGPELVRPGVSVKISCKGSGYTFTDYALHWVKQSHAKSPQWIGLINTYSSNTNYNQKFKDKATMTVDKSSSTAYMELARLTSEDSAIYYCARGITAVVGTRYYAMDYWGQGTSVTVSS
VL: NIVLTQSPTTLSVTPGDTVSLSCRASQSISNNLHWYQQRSHESPRLIIKYTSQNISGIPSRFSGSGSGTDFTLSINSVETEDFGMYFCQQSYSWPLTFGAGTKLELKR
notes: also called chimeric antibody 17A3
Regarding B1, in assay [1], the Kd worked out at 0.269 nM, the koff came out at 0.000259 s⁻¹ and the kon was found to be 965000 M⁻¹ s⁻¹. Further, the Kd in assay [2] is 0.367 nM.
